System: OC[C@H]1O[C@@H](O[C@H]2[C@H](O)[C@@H](O)C(O)O[C@@H]2CO)[C@H](O)[C@@H](O)[C@H]1O
Assay: Steady-state kinetics, DCIP-based enzymatic activity assay
Format: biochemical, Neurospora crassa
Conditions: other: apparent constant, 100 mM McIlvaine buffer pH 5.5, DCIP as artificial electron acceptor, 30°C
Protocol: Enzyme activity was assayed at 30°C using the DCIP (Karapetyan et al., 2005 Journal of Biotechnology 121: 34-48) as electron acceptor. Stock solutions of carbohydrates used for kinetic measurements were prepared in the respective buffer and allowed to stand overnight for mutarotation, while stock solutions of electron acceptors were prepared in water and immediately used. The reaction stoichiometry is 1 for the two-electron acceptor DCIP (1 mole of DCIP reduced per mole of carbohydrate oxidized. Kinetic constants were calculated by fitting the observed data to the Henri-Michaelis-Menten equation or to the adapted model for substrate inhibition using nonlinear least-squares regression and the program SigmaPlot (Systat Software, San Jose, CF, USA). The protein concentration was determined with the Bradford assay.
CDH from N. crassa oxidises glucose and galactose (Harreither et al., 2007), which has negative side effects on the lactose detection accuracy if glucose and galactose are present. […] The enzyme variant N722Q was heterologously produced in P. pastoris according to the explained routines and compared to the recombinant wild-type CDH from N. crassa. […] To investigate the effect of the mutation in the N. crassa variant a full characterization of steady-state constants was performed (Tables 2 and 3). Table 2: Apparent kinetic constants of wtCDH for indicated electron donors in 100 mM McIlvaine buffer at pH 5.5 using DCIP as artificial electron acceptor
Table 3: Apparent kinetic constants of N722Q N. crassa sensor for indicated electron donors in 100 mM McIlvaine buffer at pH 5.5 using DCIP as artificial electron acceptor

Substance: Neurospora crassa cellobiose dehydrogenase (CDH) variant N722Q (N722 of SEQ ID NO: 4 substituted by glutamine) (Neurospora crassa OR74A; N722Q)
- Km: 2.18 ± 0.28 > 10 M^b mM
- kcat: 77.92 s⁻¹
- kcat/Km: 35740 M⁻¹ s⁻¹

— patent EP3408384B1, “MUTATED CELLOBIOSE DEHYDROGENASE WITH MODIFIED SUBSTRATE SPECIFICITY” (priority 2016, dated 2017)
